Data taken from US20090111753A1, “Nogo-A Polypeptide Fragments, Variant Nogo Receptor-1 Polypeptides, and Uses Thereof” (Yale University, priority 2004, published 2009).

T1: human NgR1 alanine mutant 232, 234 (human, UniProt Q9BZR6 27-473)
T1 sequence: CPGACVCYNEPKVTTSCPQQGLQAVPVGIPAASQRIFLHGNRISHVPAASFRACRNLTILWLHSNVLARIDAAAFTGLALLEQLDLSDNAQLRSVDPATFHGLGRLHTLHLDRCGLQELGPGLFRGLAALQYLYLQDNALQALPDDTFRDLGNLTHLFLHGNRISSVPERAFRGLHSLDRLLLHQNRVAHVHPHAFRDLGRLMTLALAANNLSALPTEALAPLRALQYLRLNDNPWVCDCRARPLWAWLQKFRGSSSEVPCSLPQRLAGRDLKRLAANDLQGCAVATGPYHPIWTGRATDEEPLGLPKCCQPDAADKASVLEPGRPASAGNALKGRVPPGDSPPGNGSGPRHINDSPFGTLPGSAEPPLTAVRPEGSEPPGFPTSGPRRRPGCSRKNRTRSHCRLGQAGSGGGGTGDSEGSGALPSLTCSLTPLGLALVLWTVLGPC

T2: human NgR1 alanine mutant 163 (human, UniProt Q9BZR6 27-473)
T2 sequence: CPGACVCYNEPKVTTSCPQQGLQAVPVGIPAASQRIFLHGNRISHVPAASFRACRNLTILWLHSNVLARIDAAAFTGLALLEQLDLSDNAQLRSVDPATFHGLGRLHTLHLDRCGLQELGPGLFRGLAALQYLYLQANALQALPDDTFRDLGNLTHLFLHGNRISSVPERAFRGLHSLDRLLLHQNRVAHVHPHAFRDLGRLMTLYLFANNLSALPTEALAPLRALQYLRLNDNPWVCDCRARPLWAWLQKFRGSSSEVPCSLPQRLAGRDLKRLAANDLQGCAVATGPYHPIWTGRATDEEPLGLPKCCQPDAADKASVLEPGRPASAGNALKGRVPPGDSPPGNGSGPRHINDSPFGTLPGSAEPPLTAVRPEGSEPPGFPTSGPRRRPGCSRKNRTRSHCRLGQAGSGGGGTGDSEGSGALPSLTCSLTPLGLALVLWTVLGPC

T3: human NgR1 alanine mutant 158, 160 (human, UniProt Q9BZR6 27-473)
T3 sequence: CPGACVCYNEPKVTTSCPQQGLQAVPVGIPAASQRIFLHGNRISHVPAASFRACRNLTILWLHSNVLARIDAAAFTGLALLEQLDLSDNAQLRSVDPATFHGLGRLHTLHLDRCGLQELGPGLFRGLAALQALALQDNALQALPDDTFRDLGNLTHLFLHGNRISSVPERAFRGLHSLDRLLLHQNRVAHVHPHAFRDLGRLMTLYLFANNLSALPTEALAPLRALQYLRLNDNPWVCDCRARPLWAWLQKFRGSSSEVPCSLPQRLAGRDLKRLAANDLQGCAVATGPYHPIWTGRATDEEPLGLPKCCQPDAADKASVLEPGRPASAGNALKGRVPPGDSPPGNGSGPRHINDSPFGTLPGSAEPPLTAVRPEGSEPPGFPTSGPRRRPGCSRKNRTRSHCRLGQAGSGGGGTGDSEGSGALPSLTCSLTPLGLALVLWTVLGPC

T4: human NgR1 alanine mutant 82, 179 (human, UniProt Q9BZR6 27-473)
T4 sequence: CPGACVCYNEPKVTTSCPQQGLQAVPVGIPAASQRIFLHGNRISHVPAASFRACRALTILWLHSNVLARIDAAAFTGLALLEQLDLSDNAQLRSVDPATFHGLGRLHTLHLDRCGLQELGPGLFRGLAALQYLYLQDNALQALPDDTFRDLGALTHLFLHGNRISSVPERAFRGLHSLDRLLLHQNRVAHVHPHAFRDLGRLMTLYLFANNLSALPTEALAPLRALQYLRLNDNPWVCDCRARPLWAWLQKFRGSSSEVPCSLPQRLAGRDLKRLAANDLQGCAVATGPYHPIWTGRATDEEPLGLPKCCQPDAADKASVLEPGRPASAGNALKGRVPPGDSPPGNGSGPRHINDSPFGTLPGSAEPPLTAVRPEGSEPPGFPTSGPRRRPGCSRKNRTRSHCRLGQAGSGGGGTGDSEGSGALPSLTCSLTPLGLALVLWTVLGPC

T5: human NgR1 alanine mutant 133, 136 (human, UniProt Q9BZR6 27-473)
T5 sequence: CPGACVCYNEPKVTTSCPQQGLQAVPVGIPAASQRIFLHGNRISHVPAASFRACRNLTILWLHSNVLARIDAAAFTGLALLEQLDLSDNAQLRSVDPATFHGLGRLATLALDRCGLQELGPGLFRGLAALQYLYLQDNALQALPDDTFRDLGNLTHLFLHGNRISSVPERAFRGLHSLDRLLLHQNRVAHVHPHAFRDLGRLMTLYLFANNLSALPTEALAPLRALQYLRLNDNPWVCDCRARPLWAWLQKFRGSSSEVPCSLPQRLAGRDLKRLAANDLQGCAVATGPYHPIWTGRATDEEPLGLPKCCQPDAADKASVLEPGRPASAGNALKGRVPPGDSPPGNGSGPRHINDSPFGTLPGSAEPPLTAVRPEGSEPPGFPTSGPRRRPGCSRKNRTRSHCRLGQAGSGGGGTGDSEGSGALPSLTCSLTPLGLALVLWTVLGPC

T6: human NgR1 alanine mutant 182, 186 (human, UniProt Q9BZR6 27-473)
T6 sequence: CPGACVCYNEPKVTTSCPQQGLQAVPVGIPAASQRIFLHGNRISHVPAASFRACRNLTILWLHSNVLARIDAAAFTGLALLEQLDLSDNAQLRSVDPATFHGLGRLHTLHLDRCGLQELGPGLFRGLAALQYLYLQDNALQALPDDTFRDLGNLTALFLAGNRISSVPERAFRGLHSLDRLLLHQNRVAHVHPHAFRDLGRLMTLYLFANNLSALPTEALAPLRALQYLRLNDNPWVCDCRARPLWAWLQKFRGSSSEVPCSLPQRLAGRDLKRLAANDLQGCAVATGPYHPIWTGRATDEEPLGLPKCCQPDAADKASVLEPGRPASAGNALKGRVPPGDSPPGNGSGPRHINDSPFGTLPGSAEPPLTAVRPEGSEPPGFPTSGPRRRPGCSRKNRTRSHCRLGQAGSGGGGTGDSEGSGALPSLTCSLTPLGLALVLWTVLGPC


Assays:
[1] = target: T1, human NgR1 alanine mutant 232, 234; experiment: AP-ligand binding, COS-7
[2] = target: T2, human NgR1 alanine mutant 163; experiment: AP-ligand binding, COS-7
[3] = target: T3, human NgR1 alanine mutant 158, 160; experiment: AP-ligand binding, COS-7
[4] = target: T4, human NgR1 alanine mutant 82, 179; experiment: AP-ligand binding, COS-7
[5] = target: T5, human NgR1 alanine mutant 133, 136; experiment: AP-ligand binding, COS-7
[6] = target: T6, human NgR1 alanine mutant 182, 186; experiment: AP-ligand binding, COS-7
[7] = test system: COS-7 cells; experiment: Fibroblast spreading assay on dried GST fusion protein; type: cell-based; settings: GST fusion protein presented as dried substrate
Description: FIG. 2A. Effects of Amino-Nogo fragments on fibroblast spreading and neurite outgrowth. Different effects of Amino-Nogo fragments on fibroblast spreading. COS-7 cells were allowed to attach and spread on slides with spots coated with 50 ng of dried GST fusion protein as indicated and stained for F-actin. GST-A: fusion protein of GST and A fragment (FIG. 1) of Amino-Nogo. GST-A, GST-B, GST-Δ20, GST-B4 and GST-B4C: fusion protein of GST and A, B, Δ20, B4 or B4C fragment (FIG. 1) of Amino-Nogo, respectively.
FIG. 2B. COS-7 cell area for experiments as in (A) was measured and plotted.
FIG. 2C. COS-7 cells were allowed to attach and spread on 96 well dishes coated with dried GST fusion proteins as indicated. Number of attached cells were counted and plotted as a function of the amount of various proteins dried per well in a 96 well dish.
It has been recognized that the Amino-Nogo-A protein inhibits non-neuronal cell spreading and axonal outgrowth when the protein is substrate bound (Chen, M. S., et al., Nature 403:434-439 (2000); Fournier, A. E., et al., Nature 409:341-346 (2001)). […] The later domain has been termed Δ20. To determine whether the NgR-interacting aa of Amino-Nogo-A described in Example 1 regulate cell spreading and axonal outgrowth, various fragments were expressed as GST fusion proteins and purified from E. coli. To generate GST fusion proteins, amino Nogo fragments were cloned in pGEX2T (Amersham Pharmacia). Native and soluble GST fusion proteins were expressed and purified as described (GrandPre, T., et al., Nature 403:439-444 (2000)). COS-7 binding assays were done as described (Fournier, A. E., et al., Nature 409:341-346 (2001)). Bound AP to COS-7 cells was measured using NIH image software. Fibroblast spreading and cDRG outgrowth assay were done as described (Fournier, A. E., et al., Nature 409:341-346 (2001)) with some modifications. Briefly, 50 μl of purified GST fusion protein or peptides diluted in PBS was pipetted into polylysine precoated 96 well plates (Becton Dickson Biocoat plates) and dried overnight at room temperature. […]

[8] = test system: E13 chick DRG neurons; experiment: cDRG neurite outgrowth assay; type: cell-based; settings: substrate coated with GST fusion protein
Description: FIG. 2D. Differential effects of Amino-Nogo fragments on neurite outgrowth. Dissociated neurons from E13 chick DRGs were plated on 96 well dishes coated with lpmol protein per well and stained for neurofilament localization.
FIG. 2E. Neurite length per neuron were measured and plotted as percentage of PBS control with increasing concentration of dried protein for experiment described in […].
FIG. 6C. B24/32 peptide inhibits neurite outgrowth. Dissociated neurons from E13 chick DRG were plated onto 96 well dishes coated with 500 pmol of dried peptides as indicated and stained for neurofilament localization.
FIG. 6D. Neurite length per neuron was measured and plotted as percentage of PBS control for experiments as in (C).
It has been recognized that the Amino-Nogo-A protein inhibits non-neuronal cell spreading and axonal outgrowth when the protein is substrate bound (Chen, M. S., et al., Nature 403:434-439 (2000); Fournier, A. E., et al., Nature 409:341-346 (2001)). […] The later domain has been termed Δ20. To determine whether the NgR-interacting aa of Amino-Nogo-A described in Example 1 regulate cell spreading and axonal outgrowth, various fragments were expressed as GST fusion proteins and purified from E. coli. To generate GST fusion proteins, amino Nogo fragments were cloned in pGEX2T (Amersham Pharmacia). Native and soluble GST fusion proteins were expressed and purified as described (GrandPre, T., et al., Nature 403:439-444 (2000)). COS-7 binding assays were done as described (Fournier, A. E., et al., Nature 409:341-346 (2001)). Bound AP to COS-7 cells was measured using NIH image software. Fibroblast spreading and cDRG outgrowth assay were done as described (Fournier, A. E., et al., Nature 409:341-346 (2001)) with some modifications. Briefly, 50 μl of purified GST fusion protein or peptides diluted in PBS was pipetted into polylysine precoated 96 well plates (Becton Dickson Biocoat plates) and dried overnight at room temperature. For fibroblast spreading assay, subconfluent COS-7 cells were then plated for 1 hour in serum containing medium before fixation and staining with rho damine-phalloidin.
The same GST-Amino-Nogo proteins were tested for their ability to reduce neurite outgrowth from chick E13 DRG neurons. For cDRG outgrowth assay, dissociated E13 cDRG neurons were plated for 6 hours before fixation. […] Cell area, number of attached cells and neurite length were measured using the Imageexpress machine and software (Axon Instrument).
We reasoned that fusing the 24 aa segment of Amino-Nogo-A to NEP32 antagonist peptide might create a high affinity antagonist with a potency similar to the binding of AP-B4C-66 to NgR. […] Cell area, number of attached cells and neurite length were measured using the linageexpress machine and software (Axon Instrument).

| Molecule | binding result [1] | binding result [2] | binding result [3] | binding result [4] | binding result [5] | binding result [6] | COS-7 cell attachment and spreading [7] | neurite outgrowth from chick E13 DRG neurons [8] |
| --- | --- | --- | --- | --- | --- | --- | --- | --- |
| B fragment of Amino-Nogo: fusion protein of GST and B fragment of Amino-Nogo (protein, UniProt Q9NQC3 622-1018, looked up, fragment, GST fusion) SAVPSAGASVIQPSSSPLEASSVNYESIKHEPENPPPYEEAMSVSLKKVSGIKEEIKEPENINAALQETEAPYISIACDLIKETKLSAEPAPDFSDYSEMAKVEQPVPDHSELVEDSSPDSEPVDLFSDDSIPDVPQKQDETVMLVKESLTETSFESMIEYENKEKLSALPPEGGKPYLESFKLSLDNTKDTLLPDEVSTLSKKEKIPLQMEELSTAVYSNDDLFISKEAQIRETETFSDSSPIEIIDEFPTLISSKTDSFSKLAREYTDLEVSHKSEIANAPDGAGSLPCTELPHDLSLKNIQPKVEEKISFSDDFSKNGSATSKVLLLPPDVSALATQAEIESIVKPKVLVKEAEKKLPSDTEKEDRSPSAIFSAELSKTSVVDLLYWRDIKKTG | – | – | – | – | – | – | active | – |
| B4: fusion protein of GST and B4 fragment (carboxyl terminal 150 aa) of Amino-Nogo (protein, left off: a dimerising Fc or GST, fusion protein of GST and B4 fragment (carboxyl terminal 150 aa) of Amino-Nogo) SKTDSFSKLAREYTDLEVSHKSEIANAPDGAGSLPCTELPHDLSLKNIQPKVEEKISFSDDFSKNGSATSKVLLLPPDVSALATQAEIESIVKPKVLVKEAEKKLPSDTEKEDRSPSAIFSAELSKTSVVDLLYWRDIKKTG | – | – | – | – | – | – | do not alter COS-7 morphology | not inhibitory for axonal growth |

Further lines, with some results ahead:

| binding result [1] | binding result [2] | binding result [3] | binding result [4] | binding result [5] | binding result [6] | Molecule | COS-7 cell attachment and spreading [7] | neurite outgrowth from chick E13 DRG neurons [8] |
| --- | --- | --- | --- | --- | --- | --- | --- | --- |
| no binding | no binding | no binding | no binding | no binding | no binding | AP-Nogo-66 (ligand, UniProt Q9NQC3 1055-1120, looked up, domain: Nogo-66; construct described elsewhere (Fournier 2001); also called AP-Ng66; Ng66; not shown: alkaline phosphatase (AP); construct described elsewhere) RIYKGVIQAIQKSDEGHPFRAYLESEVAISEELVQKYSNSALGHVNCTIKELRRLFLVDDLVDSLK | – | – |
| no binding | no binding | no binding | no binding | no binding | no binding | AP-fused Amino-Nogo fragment B4C (a.a. 950-1018) (ligand, also called AmNg B4C; AP-B4C; not shown: alkaline phosphatase (AP), vector pcAP6) LLPPDVSALATQAEIESIVKPKVLVKEAEKKLPSDTEKEDRSPSAIFSAELSKTSVVDLLYWRDIKKTG | – | – |
